From patent US20250066831

How the values were obtained:
[1] = system: V40 elastin-like polypeptide fused to CVLL
[2] = system: ELP-CVLS (protein substrate of the in vitro farnesylation reaction)

Sequence of V40 elastin-like polypeptide fused to CVLL (chain, as listed by the source): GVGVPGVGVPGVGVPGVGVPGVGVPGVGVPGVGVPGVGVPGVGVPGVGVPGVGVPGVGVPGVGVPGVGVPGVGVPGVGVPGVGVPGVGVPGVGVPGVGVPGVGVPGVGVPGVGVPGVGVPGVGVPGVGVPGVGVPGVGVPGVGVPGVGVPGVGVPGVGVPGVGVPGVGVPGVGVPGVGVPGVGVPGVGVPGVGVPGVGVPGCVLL

“geranylgeranyl transferase type I (GGTase-I) from Rattus norvegicus, heterodimer of alpha and beta subunits” was tested, and the “farnesylation on co-expression in E. coli (HPLC, MALDI-TOF MS, NMR of purified V40-Fr)” value [1] was “only one farnesyl group is added to the protein at the cysteine residue located in the C-terminal CaaX motif”.

With “farnesyltransferase (FTase) from Rattus norvegicus, heterodimer of alpha and beta subunits” the “in vitro farnesylation (3 µM ELP-CVLS, 0.2 µM FTase, 10 µM FPP, RP-HPLC)” value [2] was “In vitro farnesylation of ELPs with the soluble transferase (produced as a translationally coupled heterodimer) indicates that the recombinantly expressed enzyme is active”.
